# Test results: the supplement of paper PMC11246515
# ± gives the standard deviation of the averaged measurements.
# Test: total protein half-life in vivo (active degradation + dilution); higher = more stable protein
# [1] = E. coli NCM3722 delta-clpP delta-lon delta-hslV, growth: N-lim chemostat, doubling time 6 h
# [2] = E. coli NCM3722 delta-clpP, growth: N-lim chemostat, doubling time 6 h
# [3] = E. coli NCM3722 delta-hslV, growth: N-lim chemostat, doubling time 6 h
# [4] = E. coli NCM3722 delta-lon, growth: N-lim chemostat, doubling time 6 h
# [5] = E. coli NCM3722 delta-smpB, growth: N-lim chemostat, doubling time 6 h
# [6] = wild type E. coli NCM3722, growth: C-lim chemostat, doubling time 3 h
# [7] = wild type E. coli NCM3722, growth: C-lim chemostat, doubling time 12 h
# [8] = wild type E. coli NCM3722, growth: N-lim chemostat, doubling time 6 h
# [9] = wild type E. coli NCM3722, growth: N-lim chemostat, doubling time 12 h
# [10] = wild type E. coli NCM3722, growth: P-lim chemostat, doubling time 6 h
# [11] = wild type E. coli NCM3722, growth: P-lim chemostat, doubling time 12 h
# [12] = wild type E. coli NCM3722, growth: C-lim chemostat, doubling time 6 h
Sequence,total protein half-life in vivo [1],total protein half-life in vivo [2],total protein half-life in vivo [3],total protein half-life in vivo [4],total protein half-life in vivo [5],total protein half-life in vivo [6],total protein half-life in vivo [7],total protein half-life in vivo [8],total protein half-life in vivo [9],total protein half-life in vivo [10],total protein half-life in vivo [11],total protein half-life in vivo [12]
MQALLLEQQDGKTLASVQTLDESRLPEGDVTVDVHWSSLNYKDALAITGKGKIIRNFPMIPGIDFAGTVRTSEDPRFHAGQEVLLTGWGVGENHWGGLAEQARVKGDWLVAMPQGLDARKAMIIGTAGFTAMLCVMALEDAGVRPQDGEIVVTGASGGVGSTAVALLHKLGYQVVAVSGRESTHEYLKSLGASRVLPRDEFAESRPLEKQVWAGAIDTVGDKVLAKVLAQMNYGGCVAACGLAGGFTLPTTVMPFILRNVRLQGVDSVMTPPERRAQAWQRLVADLPESFYTQAAKEISLSEAPNFAEAIINNQIQGRTLVKVN,5.18 ± 0.35 h,5.271 ± 0.034 h,5.7 ± 1.2 h,5.67 ± 0.37 h,4.6639 ± 0.0045 h,3.03 ± 0.091 h,10.63 ± 0.024 h,5.25 ± 0.21 h,9.06 ± 0.27 h,6.5 ± 0.39 h,13 ± 0.96 h,
MVSSFTSAPRSGFYYFAQGWKLVSQPGIRRFVILPLLVNILLMGGAFWWLFTQLDVWIPTLMSYVPDWLQWLSYLLWPLAVISVLLVFGYFFSTIANWIAAPFNGLLAEQLEARLTGATPPDTGIFGIMKDVPRIMKREWQKFAWYLPRAIVLLILYFIPGIGQTVAPVLWFLFSAWMLAIQYCDYPFDNHKVPFKEMRTALRTRKITNMQFGALTSLFTMIPLLNLFIMPVAVCGATAMWVDCYRDKHAMWR [P0A6J3],6.46 h,,5.84 h,6.33 ± 0.76 h,6.144 ± 0.028 h,3.19 ± 0.53 h,12.3 h,6.67 h,13.7 ± 1.9 h,7.18 h,13.2 ± 0.26 h,5.49 ± 0.6 h
MAKSLFRALVALSFLAPLWLNAAPRVITLSPANTELAFAAGITPVGVSSYSDYPPQAQKIEQVSTWQGMNLERIVALKPDLVIAWRGGNAERQVDQLASLGIKVMWVDATSIEQIANALRQLAPWSPQPDKAEQAAQSLLDQYAQLKAQYADKPKKRVFLQFGINPPFTSGKESIQNQVLEVCGGENIFKDSRVPWPQVSREQVLARSPQAIVITGGPDQIPKIKQYWGEQLKIPVIPLTSDWFERASPRIILAAQQLCNALSQVD,3.92 ± 0.45 h,5.19 ± 0.79 h,6.42 ± 0.87 h,5.93 ± 0.48 h,5.67 ± 0.72 h,,4.41 ± 0.44 h,5.44 ± 0.56 h,12.1 ± 1.3 h,,12.3 ± 0.33 h,6.08 ± 0.89 h
MVDKSQETTHFGFQTVAKEQKADMVAHVFHSVASKYDVMNDLMSFGIHRLWKRFTIDCSGVRRGQTVLDLAGGTGDLTAKFSRLVGETGKVVLADINESMLKMGREKLRNIGVIGNVEYVQANAEALPFPDNTFDCITISFGLRNVTDKDKALRSMYRVLKPGGRLLVLEFSKPIIEPLSKAYDAYSFHVLPRIGSLVANDADSYRYLAESIRMHPDQDTLKAMMQDAGFESVDYYNLTAGVVALHRGYKF [P0A887],5.402 ± 0.0099 h,4.951 ± 0.013 h,4.18 ± 0.12 h,4.9 ± 0.36 h,4.19 ± 0.076 h,2.405 ± 0.0086 h,7.96 ± 0.38 h,4.36 ± 0.36 h,8.27 ± 1.5 h,4.45 ± 0.31 h,8.773 ± 0.069 h,4.67 ± 0.086 h
MSSNFRHQLLSLSLLVGIAAPWAAFAQAPISSVGSGSVEDRVTQLERISNAHSQLLTQLQQQLSDNQSDIDSLRGQIQENQYQLNQVVERQKQILLQIDSLSSGGAAAQSTSGDQSGAAASTTPTADAGTANAGAPVKSGNANTDYNAAIALVQDKSRQDDAMVAFQNFIKNYPDSTYLPNANYWLGQLNYNKGKKDDAAYYFASVVKNYPKSPKAADAMFKVGVIMQDKGDTAKAKAVYQQVISKYPGTDGAKQAQKRLNAM,5.65 ± 0.36 h,,5.26 ± 0.17 h,5.96 ± 0.72 h,5.27 ± 1.5 h,,8.8 ± 1.9 h,5.61 ± 0.1 h,11.3 ± 0.16 h,5.31 ± 1.9 h,11.6 ± 0.52 h,6.4 ± 1 h
MKAAAKTQKPKRQEEHANFISWRFALLCGCILLALAFLLGRVAWLQVISPDMLVKEGDMRSLRVQQVSTSRGMITDRSGRPLAVSVPVKAIWADPKEVHDAGGISVGDRWKALANALNIPLDQLSARINANPKGRFIYLARQVNPDMADYIKKLKLPGIHLREESRRYYPSGEVTAHLIGFTNVDSQGIEGVEKSFDKWLTGQPGERIVRKDRYGRVIEDISSTDSQAAHNLALSIDERLQALVYRELNNAVAFNKAESGSAVLVDVNTGEVLAMANSPSYNPNNLSGTPKEAMRNRTITDVFEPGSTVKPMVVMTALQRGVVRENSVLNTIPYRINGHEIKDVARYSELTLTGVLQKSSNVGVSKLALAMPSSALVDTYSRFGLGKATNLGLVGERSGLYPQKQRWSDIERATFSFGYGLMVTPLQLARVYATIGSYGIYRPLSITKVDPPVPGERVFPESIVRTVVHMMESVALPGGGGVKAAIKGYRIAIKTGTAKKVGPDGRYINKYIAYTAGVAPASQPRFALVVVINDPQAGKYYGGAVSAPVFGAIMGGVLRTMNIEPDALTTGDKNEFVINQGEGTGGRS [P0AD68],2.8 ± 0.043 h,2.39 ± 0.032 h,2.53 ± 0.39 h,2.31 ± 0.099 h,2.77 ± 0.059 h,1.75 ± 0.11 h,2.75 ± 0.35 h,2.61 ± 0.035 h,3.15 ± 0.18 h,3.311 ± 0.027 h,4.83 ± 0.71 h,2.35 ± 0.13 h
MKNLIAELLFKLAQKEEESKELCAQVEALEIIVTAMLRNMAQNDQQRLIDQVEGALYEVKPDASIPDDDTELLRDYVKKLLKHPRQ [P0AAN9],,3.74 ± 0.97 h,4.38 ± 0.94 h,6.09 ± 1.4 h,4.195 ± 0.0044 h,3.54 ± 0.59 h,7.25 ± 1.9 h,3.43 ± 0.67 h,8.18 ± 5.6 h,4.02 ± 1.8 h,10.1 ± 0.93 h,4.96 ± 0.47 h
MSLSRAAIVDQLKEIVGADRVITDETVLKKNSIDRFRKFPDIHGIYTLPIPAAVVKLGSTEQVSRVLNFMNAHKINGVPRTGASATEGGLETVVENSVVLDGSAMNQIINIDIENMQATAQCGVPLEVLENALREKGYTTGHSPQSKPLAQMGGLVATRSIGQFSTLYGAIEDMVVGLEAVLADGTVTRIKNVPRRAAGPDIRHIIIGNEGALCYITEVTVKIFKFTPENNLFYGYILEDMKTGFNILREIMVEGYRPSIARLYDAEDGTQHFTHFADGKCVLIFMAEGNPRIAKVTGEGIAEIVARYPQCQRVDSKLIETWFNNLNWGPDKVAAERVQILKTGNMGFTTEVSGCWSCIHEIYESVINRIRTEFPHADDITMLGGHSSHSYQNGTNMYFVYDYNVVDCKPEEEIDKYHNPLNKIICEETIRLGGSMVHHHGIGKHRVHWSKLEHGSAWALLEGLKKQFDPNGIMNTGTIYPIEK,,,,,,3.54 h,,,,,,
